Biological target: T1, Human PSMA (Prostate-Specific Membrane Antigen) (human, UniProt Q04609 44-750, limits assumed)
T1 construct: Coated on a 96 well plate at 3 ug/ml
Assay: ELISA, human PSMA coated on plate, anti-human-IgG-HRP detection
Protocol: Human PSMA was coated on a 96 well plate at 3 μg/ml for at least two hours at room temperature. The plate was washed with wash buffer (0.05% Tween-20 in PBS), then blocked with blocking buffer (3% BSA in PBS) washed again using wash buffer. After which antibodies were titrated from 66.6 nM to 0.013 nM and added to the plate and incubated at room temperature for one hour, after which the plate was washed and anti-human-IgG-HRP added, the plate was incubated for a further 1 hour at room temperature, before being washed and TMB detection reagent added, the reaction was stopped by the addition of 1M HCl to the wells, after which the plate was read at 450 nm using the SpectraMax plate reader.

T1 sequence (Q04609 44-750 limits assumed): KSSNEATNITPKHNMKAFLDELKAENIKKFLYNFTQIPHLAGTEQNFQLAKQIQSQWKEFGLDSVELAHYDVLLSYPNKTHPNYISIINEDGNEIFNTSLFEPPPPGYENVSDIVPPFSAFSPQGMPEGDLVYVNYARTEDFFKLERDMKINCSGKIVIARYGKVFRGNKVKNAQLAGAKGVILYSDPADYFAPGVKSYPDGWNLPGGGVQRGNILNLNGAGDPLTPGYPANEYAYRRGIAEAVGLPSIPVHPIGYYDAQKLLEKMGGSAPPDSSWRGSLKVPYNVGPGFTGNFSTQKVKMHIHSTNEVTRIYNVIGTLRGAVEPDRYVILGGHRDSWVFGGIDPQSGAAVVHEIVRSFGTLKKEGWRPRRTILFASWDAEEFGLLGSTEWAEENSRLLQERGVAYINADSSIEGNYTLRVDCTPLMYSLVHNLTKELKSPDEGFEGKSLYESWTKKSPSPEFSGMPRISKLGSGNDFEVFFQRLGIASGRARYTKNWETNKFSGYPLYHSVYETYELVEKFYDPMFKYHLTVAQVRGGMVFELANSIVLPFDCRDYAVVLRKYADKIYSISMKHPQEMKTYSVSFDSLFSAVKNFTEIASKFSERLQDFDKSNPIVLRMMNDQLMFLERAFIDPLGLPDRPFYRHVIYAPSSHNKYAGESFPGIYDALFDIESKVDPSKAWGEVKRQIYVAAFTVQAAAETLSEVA

Binder | EC50
J415 (antibody, V domains shown) VH: EVKLEESGGGLVQPGGSMKLSCVASGFTFSNYWMNWVRQSPEKGLEWVAEIRSQSNNFATHYAESVKGRVIISRDDSKSSVYLQMNNLRAEDTGIYYCTRRWNNFWGQGTTLTVSS VL: NIVMTQFPKSMSISVGERVTLTCKASENVGTYVSWYQQKPEQSPKMLIYGASNRFTGVPDRFTGSGSATDFILTISSVQTEDLVDYYCGQSYTFPYTFGGGTKLEMK | 24.8 nM
MDX 2A10 (antibody, human IgG1, kappa, V domains shown, also called antibody 2A10) VH: EVQLVQSGAEVKKPGESLKISCKGSGYSFTSNWIGWVRQMPGKGLEWMGIIYPGDSDTRYSPSFQGQVTISADKSISTAYLQWSSLKASDTAMYYCARQTGFLWSSDLWGRGTLVTVSS VL: AIQLTQSPSSLSASVGDRVTITCRASQDISSALAWYQQKPGKAPKLLIYDASSLESGVPSRFSGYGSGTDFTLTINSLQPEDFATYYCQQFNSYPLTFGGGTKVEIKR | 0.115 nM
D2B (antibody, V domains shown) VH: EVKLQESGPGLVKPSQSLSLTCSVTGYSITSGYYWNWIRQFPGNKLEWMGSISFDGNNNYNPSLRNRISITRDTSKNQFFLKLNSVTTEDTATYYCAREGDYYGSSFFTYWGQGTLVTVS VL: DIVMTQSPASLSASVGETVTLTCGASENIYGALNWYQRKQGKSPQLLIYGATNLADGMSSRFSGSGSGRQYSLKISSLHPDDVATYYCQNVFRTYTFGGGTKLEIKR | 0.173 nM
